Several values for one entry are separate records, joined by “and”; a condition that tells them apart may be missing. Equal values may be shown once. Values belong to the substance of their own block, whether it stands above or below them.
How the values were obtained:
[1] = molecular target: activated (Caspase 11-cleaved) mGSDMD-mEGFP, mGSDMD(NTD)-mEGFP (mouse); assay: single-molecule TIRF imaging with intensity-based stoichiometry analysis; preformed supported lipid bilayer of 100% Egg PC (no PI(4,5)P2) incubated with 2 nM active mGSDMD-mEGFP for 1 h, washed
[2] = molecular target: activated (Caspase 11-cleaved) mGSDMD-mEGFP, mGSDMD(NTD)-mEGFP (mouse); assay: single-molecule TIRF imaging with intensity-based stoichiometry analysis; preformed supported lipid bilayer (Egg PC:PI(4,5)P2 99:1 mol %) on glass incubated with 0.5, 1 or 2 nM protein (pre-cleaved WT or mutants, or full-length at 2 nM) for 1 h, washed 15 times with SLB buffer
[3] = molecular target: activated (Caspase 11-cleaved) mGSDMD-mEGFP, mGSDMD(NTD)-mEGFP (mouse); assay: single-molecule TIRF imaging with intensity-based stoichiometry analysis; 2 nM mGSDMD-mEGFP with 20 nM Caspase 11 incubated with LUVs (Egg PC:PI(4,5)P2 99:1 mol %) for 1 h (same pattern at 5 and 2 min and after H2O2), proteoliposomes then fused into a supported lipid bilayer on glass; SLB buffer 150 mM NaCl, 10 mM Hepes pH 7.4
[4] = molecular target: activated (Caspase 11-cleaved) mGSDMD-C39A-C57A-mEGFP (mouse); assay: single-molecule TIRF imaging with intensity-based stoichiometry analysis; preformed supported lipid bilayer (Egg PC:PI(4,5)P2 99:1 mol %) on glass incubated with 0.5, 1 or 2 nM protein (pre-cleaved WT or mutants, or full-length at 2 nM) for 1 h, washed 15 times with SLB buffer
[5] = molecular target: activated (Caspase 11-cleaved) mGSDMD-C192A-mEGFP (mouse); assay: as above

stoichiometry N [1]: 2 | stoichiometry N [2]: 5 and 6 and 9 | stoichiometry N [3]: 2 and 3
Substance: activated (Caspase 11-cleaved) mGSDMD-mEGFP, mGSDMD(NTD)-mEGFP (domain or fragment)

stoichiometry N [4]: 2 and 3 and 4
Substance: activated (Caspase 11-cleaved) mGSDMD-C39A-C57A-mEGFP (domain or fragment)

stoichiometry N [5]: 3 and 2
Substance: activated (Caspase 11-cleaved) mGSDMD-C192A-mEGFP (domain or fragment)
